Several values for one entry are separate records, joined by “and”; a condition that tells them apart may be missing. Equal values may be shown once.
Columns and labels:
[1] = biological target: T1, human complement component 5 (C5) (Homo sapiens, UniProt P01031); assay: cell-based or functional assay
[2] = biological target: T1, human complement component 5 (C5); assay: SEC-MALS; antibody (700 nM) plus C5 (400 nM) incubated about 30 min at room temperature in PBS; Bio SEC-5 1000 A column run in PBS; no eculizumab; details: both partners purified

B1: mAb TPP-2799 (antibody, V domains shown)
VH: QVQLVESGGGLVQPGRSLRLSCAASGFTVHSSYYMAWVRQAPGKGLEWVGAIFTGSGAEYKAEWAKGRVTISKDTSKNQVVLTMTNMDPVDTATYYCASDAGYDYPTHAMHYWGQGTLVTVSS
VL: DIQMTQSPSSLSASVGDRVTITCRASQGISSSLAWYQQKPGKAPKLLIYGASETESGVPSRFSGSGSGTDFTLTISSLQPEDFATYYCQNTKVGSSYGNTFGGGTKVEIK
notes: heavy chain of Chugai mAb RO7112689 (crovalimab) as described in CAS Registry Number 1917321-26-6; light chain of Chugai mAb RO7112689 (crovalimab) as described in CAS Registry Number 1917321-26-6; MALS mass alone 154 kDa; also called RO7112689; source: Expi293, transiently expressed, purified (MabSelect SuRe); copies: 2 + 2
IC50 of inhibition of classical-pathway hemolysis of antibody-sensitized chicken red blood cells in 20% (v/v) human serum [1]: 30 nM | stoichiometry N [2]: 1 C5 per TPP-2799 and 2 C5 per TPP-2799

Source: PMC10118082 (PLOS ONE, 2023)
